Assay results as given in article PMC6235537 (Science Advances, 2018).

Tests used:
GM^CBM21 = molecular target: T1, GM^CBM21 (Oryctolagus cuniculus, UniProt Q00756); test: ITC; type: binding
T1 sequence (Q00756 102-237): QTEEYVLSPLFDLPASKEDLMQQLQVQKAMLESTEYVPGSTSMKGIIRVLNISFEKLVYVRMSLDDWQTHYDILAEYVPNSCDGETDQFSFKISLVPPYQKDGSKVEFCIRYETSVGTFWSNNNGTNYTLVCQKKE

His6-tagged PP1α_(7–330) [1] = molecular target: T2, His6-tagged PP1α_(7–330) (UniProt P62136 7-330); test: ITC
His6-tagged PP1α_(7–330) [2] = molecular target: T2, His6-tagged PP1α_(7–330); test: SPR
[3] = molecular target: PP1α_(7–300) (as crystallised with GM^64–93 and microcystin-LR) (UniProt P62136 7-300); test: crystal structure
His6-tagged PP1γ_(7–308) = His6-tagged PP1γ_(7–308) (UniProt P36873 7-308); test: ITC
His6-tagged PP1α_(7–300) = His6-tagged PP1α_(7–300) (UniProt P62136 7-300); test: ITC
His6-tagged PP1γ_(7–323) = His6-tagged PP1γ_(7–323) (UniProt P36873 7-323); test: ITC
His6-tagged PP1β_(6–327) = His6-tagged PP1β_(6–327) (UniProt P62140 6-327); test: ITC
His6-tagged PP1β_(6–327), sequence (P62140 6-327): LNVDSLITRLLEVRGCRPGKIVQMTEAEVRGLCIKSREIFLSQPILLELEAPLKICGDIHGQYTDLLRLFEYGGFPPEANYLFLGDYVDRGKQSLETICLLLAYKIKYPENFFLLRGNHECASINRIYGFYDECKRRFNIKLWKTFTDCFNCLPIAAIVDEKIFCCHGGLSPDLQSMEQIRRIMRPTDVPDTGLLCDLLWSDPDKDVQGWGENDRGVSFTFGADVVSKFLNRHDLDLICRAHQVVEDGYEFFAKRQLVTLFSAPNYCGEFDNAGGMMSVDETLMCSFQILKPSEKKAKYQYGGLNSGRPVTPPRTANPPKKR

T2 sequence (P62136 7-330): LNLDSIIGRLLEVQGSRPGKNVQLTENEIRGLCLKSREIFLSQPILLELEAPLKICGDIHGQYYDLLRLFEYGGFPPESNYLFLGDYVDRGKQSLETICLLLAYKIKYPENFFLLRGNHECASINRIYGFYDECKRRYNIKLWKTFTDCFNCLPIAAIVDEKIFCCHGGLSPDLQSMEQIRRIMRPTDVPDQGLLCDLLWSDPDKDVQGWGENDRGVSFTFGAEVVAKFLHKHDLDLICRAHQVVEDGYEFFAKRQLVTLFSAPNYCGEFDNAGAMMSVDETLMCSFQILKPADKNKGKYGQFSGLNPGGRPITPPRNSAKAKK
His6-tagged PP1γ_(7–323), sequence (P36873 7-323): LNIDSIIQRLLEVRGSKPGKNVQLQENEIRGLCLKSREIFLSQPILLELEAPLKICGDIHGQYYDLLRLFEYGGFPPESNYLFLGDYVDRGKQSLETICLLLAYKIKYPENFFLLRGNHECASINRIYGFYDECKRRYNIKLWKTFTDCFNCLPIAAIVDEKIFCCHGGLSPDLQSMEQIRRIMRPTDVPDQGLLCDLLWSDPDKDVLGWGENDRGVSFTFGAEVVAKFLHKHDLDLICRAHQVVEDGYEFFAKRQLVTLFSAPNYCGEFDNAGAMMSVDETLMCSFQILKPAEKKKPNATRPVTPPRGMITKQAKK
His6-tagged PP1γ_(7–308), sequence (P36873 7-308): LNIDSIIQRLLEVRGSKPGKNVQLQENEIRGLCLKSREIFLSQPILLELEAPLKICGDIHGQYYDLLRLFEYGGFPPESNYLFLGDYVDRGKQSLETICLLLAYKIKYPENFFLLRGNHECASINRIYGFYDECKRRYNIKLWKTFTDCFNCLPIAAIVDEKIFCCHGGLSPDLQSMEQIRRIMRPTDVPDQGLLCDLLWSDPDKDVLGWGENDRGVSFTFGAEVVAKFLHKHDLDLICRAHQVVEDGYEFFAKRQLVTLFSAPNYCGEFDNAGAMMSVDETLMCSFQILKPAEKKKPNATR
His6-tagged PP1α_(7–300), sequence (P62136 7-300): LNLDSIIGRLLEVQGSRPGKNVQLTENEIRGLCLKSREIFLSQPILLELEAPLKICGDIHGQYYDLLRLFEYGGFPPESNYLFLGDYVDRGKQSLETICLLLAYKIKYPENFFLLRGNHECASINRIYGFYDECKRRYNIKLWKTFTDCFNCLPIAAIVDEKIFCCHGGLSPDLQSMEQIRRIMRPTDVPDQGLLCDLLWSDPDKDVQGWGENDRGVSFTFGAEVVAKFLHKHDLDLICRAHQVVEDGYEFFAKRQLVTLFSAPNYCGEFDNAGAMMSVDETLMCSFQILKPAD
PP1α_(7–300) (as crystallised with GM^64–93 and microcystin-LR), sequence (P62136 7-300): as above

Work on `OC[C@H]1O[C@@H]2O[C@H]3[C@H](O)[C@@H](O)[C@@H](O[C@H]4[C@H](O)[C@@H](O)[C@@H](O[C@H]5[C@H](O)[C@@H](O)[C@@H](O[C@H]6[C@H](O)[C@@H](O)[C@@H](O[C@H]7[C@H](O)[C@@H](O)[C@@H](O[C@H]8[C@H](O)[C@@H](O)[C@@H](O[C@H]1[C@H](O)[C@H]2O)O[C@@H]8CO)O[C@@H]7CO)O[C@@H]6CO)O[C@@H]5CO)O[C@@H]4CO)O[C@@H]3CO` [β-CD] yielded a Kd (GM^CBM21) of 8200 ± 100 nM.

In the case of `OC[C@H]1O[C@@H]2O[C@H]3[C@H](O)[C@@H](O)[C@@H](O[C@H]4[C@H](O)[C@@H](O)[C@@H](O[C@H]5[C@H](O)[C@@H](O)[C@@H](O[C@H]6[C@H](O)[C@@H](O)[C@@H](O[C@H]7[C@H](O)[C@@H](O)[C@@H](O[C@H]1[C@H](O)[C@H]2O)O[C@@H]7CO)O[C@@H]6CO)O[C@@H]5CO)O[C@@H]4CO)O[C@@H]3CO` [α-CD], the Kd (GM^CBM21) is reported as 27600 nM.

B1: GM^2–237 (muscle glycogen-targeting subunit of PP1, PPP1R3A, residues 2 to 237) (domain or fragment)
chain: EPSEVPGQNSKDNFLEVPNLSDSLCEDEEVKAIFKPGFSPQPSRRGSESSEEVYVHTASSGGRRVSFADNFGFNLVSVKEFDTWELPSVSTTFELGKDAFQTEEYVLSPLFDLPASKEDLMQQLQVQKAMLESTEYVPGSTSMKGIIRVLNISFEKLVYVRMSLDDWQTHYDILAEYVPNSCDGETDQFSFKISLVPPYQKDGSKVEFCIRYETSVGTFWSNNNGTNYTLVCQKKE
In the case of B1, the Kd (His6-tagged PP1α_(7–330) [1]) is reported as 26.5 ± 2.3 nM and the dH (His6-tagged PP1α_(7–330) [1]) is reported as -20.2 ± 1 kcal/mol.

B2: GM^64–105 peptide (peptide)
peptide: RRVSFADNFGFNLVSVKEFDTWELPSVSTTFELGKDAFQTEE
B2 was tested, and the Kd (His6-tagged PP1α_(7–330) [2]) was 114 ± 4 nM.

B3: GM^64–93 peptide (peptide)
peptide: RRVSFADNFGFNLVSVKEFDTWELPSVSTT
B3: binds [3].

B4: GM^64–237 (domain or fragment)
chain: RRVSFADNFGFNLVSVKEFDTWELPSVSTTFELGKDAFQTEEYVLSPLFDLPASKEDLMQQLQVQKAMLESTEYVPGSTSMKGIIRVLNISFEKLVYVRMSLDDWQTHYDILAEYVPNSCDGETDQFSFKISLVPPYQKDGSKVEFCIRYETSVGTFWSNNNGTNYTLVCQKKE
For B4, the Kd (His6-tagged PP1γ_(7–308)) was 55.7 ± 5.1 nM, the dH (His6-tagged PP1γ_(7–308)) was -13.3 ± 5.2 kcal/mol and the Kd (His6-tagged PP1α_(7–300)) was 51 ± 5.1 nM. It also gave a dH (His6-tagged PP1α_(7–300)) of -25.1 ± 0.9 kcal/mol, a Kd (His6-tagged PP1α_(7–330) [1]) of 20.8 ± 2.4 nM and a dH (His6-tagged PP1α_(7–330) [1]) of -34.5 ± 2.4 kcal/mol. The Kd (His6-tagged PP1γ_(7–323)) was 21.4 ± 11.6 nM, the dH (His6-tagged PP1γ_(7–323)) was -22.6 ± 0.1 kcal/mol and the Kd (His6-tagged PP1β_(6–327)) was 17.3 ± 4 nM. It also gave a dH (His6-tagged PP1β_(6–327)) of -15.4 ± 0.8 kcal/mol.
